Patent US20240270821A1, “GIP/GLP1/GCG TRI-RECEPTOR AGONISTS AND USES THEREOF” (priority 2023, published 2024)
Positions count from the first letter of the chain named.

T1: human GIP receptor (human) (UniProt P48546)
T1 sequence (looked up): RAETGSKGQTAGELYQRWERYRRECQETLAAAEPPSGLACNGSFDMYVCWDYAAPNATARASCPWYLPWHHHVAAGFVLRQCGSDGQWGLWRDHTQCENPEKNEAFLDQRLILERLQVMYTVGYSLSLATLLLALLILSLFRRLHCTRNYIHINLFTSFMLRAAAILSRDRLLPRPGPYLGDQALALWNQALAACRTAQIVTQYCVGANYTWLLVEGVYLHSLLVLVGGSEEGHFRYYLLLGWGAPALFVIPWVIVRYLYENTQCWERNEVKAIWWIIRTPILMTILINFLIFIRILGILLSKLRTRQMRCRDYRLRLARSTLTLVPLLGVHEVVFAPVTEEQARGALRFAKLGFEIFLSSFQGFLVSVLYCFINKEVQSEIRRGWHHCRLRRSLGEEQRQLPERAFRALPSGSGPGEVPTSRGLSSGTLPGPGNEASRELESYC

B1: Example 477 (peptide)
chain: YXQGTXTSDXSIXLDXKAQXXFIEYLIEGGPSSGEPPPEEG
modifications: synthetic construct; SITE 2: note = 2-Aminoisobutyric Acid; SITE 6: note = alpha-methyl-2-fluoro-L-phenylalanine; SITE 10: note = 3-(4-Pyridyl)-L-alanine; SITE 13: note = alpha-methyl-leucine; SITE 16: note = L-ornithine; SITE 17: note = Lysine is chemically modified through conjugation of the epsil
B2: Example 482 (peptide)
chain: B1 chain with S11X, X21N
modifications: synthetic construct; SITE 2: note = 2-Aminoisobutyric Acid; SITE 6: note = alpha-methyl-2-fluoro-L-phenylalanine; SITE 10: note = 3-(4-Pyridyl)-L-alanine; SITE 11: note = alpha-methyl-L-serine; SITE 13: note = alpha-methyl-leucine; SITE 16: note = L-ornithine; SITE 17: note = Lysine is chemically mo
B3: Example 492 (peptide)
chain: B1 chain with S11X, E35A, P37E, E39S
modifications: synthetic construct; SITE 2: note = 2-Aminoisobutyric Acid; SITE 6: note = alpha-methyl-2-fluoro-L-phenylalanine; SITE 10: note = 3-(4-Pyridyl)-L-alanine; SITE 11: note = alpha-methyl-L-serine; SITE 13: note = alpha-methyl-leucine; SITE 16: note = L-ornithine; SITE 17: note = Lysine is chemically mo
B4: Example 476 (peptide)
chain: B1 chain with S11X
modifications: synthetic construct; SITE 2: note = 2-Aminoisobutyric Acid; SITE 6: note = alpha-methyl-2-fluoro-L-phenylalanine; SITE 10: note = 3-(4-Pyridyl)-L-alanine; SITE 11: note = alpha-methyl-L-serine; SITE 13: note = alpha-methyl-leucine; SITE 16: note = L-ornithine; SITE 17: note = Lysine is chemically mo
B5: Example 483 (peptide)
chain: B1 chain with S11X, X21N, E40G, G41E
modifications: synthetic construct; SITE 2: note = 2-Aminoisobutyric Acid; SITE 6: note = alpha-methyl-2-fluoro-L-phenylalanine; SITE 10: note = 3-(4-Pyridyl)-L-alanine; SITE 11: note = alpha-methyl-L-serine; SITE 13: note = alpha-methyl-leucine; SITE 16: note = L-ornithine; SITE 17: note = Lysine is chemically mo
B6: Example 474 (peptide)
chain: B1 chain with S11X, X21N, Y25X, P37E
modifications: synthetic construct; SITE 2: note = 2-Aminoisobutyric Acid; SITE 6: note = alpha-methyl-2-fluoro-L-phenylalanine; SITE 10: note = 3-(4-Pyridyl)-L-alanine; SITE 11: note = alpha-methyl-L-serine; SITE 13: note = alpha-methyl-leucine; SITE 16: note = L-ornithine; SITE 17: note = Lysine is chemically mo
B7: Example 466 (peptide)
chain: HXQGTXTSDXXIXLDXKAQXAFIEYLLEGGPSSGEPPPE
modifications: synthetic construct; SITE 2: note = 2-Aminoisobutyric Acid; SITE 6: note = alpha-methyl-2-fluoro-L-phenylalanine; SITE 10: note = 3-(4-Pyridyl)-L-alanine; SITE 11: note = alpha-methyl-L-serine; SITE 13: note = alpha-methyl-leucine; SITE 16: note = L-ornithine; SITE 17: note = Lysine is chemically mo
B8: Example 478 (peptide)
chain: B7 chain with A21N
modifications: synthetic construct; SITE 2: note = 2-Aminoisobutyric Acid; SITE 6: note = alpha-methyl-2-fluoro-L-phenylalanine; SITE 10: note = 3-(4-Pyridyl)-L-alanine; SITE 11: note = alpha-methyl-L-serine; SITE 13: note = alpha-methyl-leucine; SITE 16: note = L-ornithine; SITE 17: note = Lysine is chemically mo
B9: Example 486 (peptide)
chain: B7 chain with H1Y, X11S, L27E, E39S
modifications: synthetic construct; SITE 2: note = 2-Aminoisobutyric Acid; SITE 6: note = alpha-methyl-2-fluoro-L-phenylalanine; SITE 10: note = 3-(4-Pyridyl)-L-alanine; SITE 13: note = alpha-methyl-leucine; SITE 16: note = L-ornithine; SITE 17: note = Lysine is chemically modified through conjugation of the epsil
B10: Example 479 (peptide)
chain: B7 chain with P37E
modifications: synthetic construct; SITE 2: note = 2-Aminoisobutyric Acid; SITE 6: note = alpha-methyl-2-fluoro-L-phenylalanine; SITE 10: note = 3-(4-Pyridyl)-L-alanine; SITE 11: note = alpha-methyl-L-serine; SITE 13: note = alpha-methyl-leucine; SITE 16: note = L-ornithine; SITE 17: note = Lysine is chemically mo
B11: Example 497 (peptide)
chain: YXQGTFTSDXSXXLDKKAQXAFIEXLIEGGPSSGAPPPSGS
modifications: synthetic construct; SITE 2: note = 2-Aminoisobutyric Acid; SITE 10: note = 3-(4-Pyridyl)-L-alanine; SITE 12: note = L-ornithine; SITE 13: note = alpha-methyl-leucine; SITE 17: note = Lysine is chemically modified through conjugation of the epsilon-amino group of the Lysine side chain with (2-[2-(2-
B12: Example 471 (peptide)
chain: YXQGTXTSDYSILLDKKAQXAFIEYLEEGGPSSGAPPPEEG
modifications: synthetic construct; SITE 2: note = 2-Aminoisobutyric Acid; SITE 6: note = alpha-methyl-2-fluoro-L-phenylalanine; SITE 17: note = Lysine is chemically modified through conjugation of the epsilon-amino group of the Lysine side chain with (gamma-Glu)2-CO-(CH2)16-CO2H; SITE 20: note = 2-Aminoisobutyric

biological target: hGLP-1R (Homo sapiens, UniProt P43220); experiment: cell-based or functional assay
Sequence (P43220 24-463): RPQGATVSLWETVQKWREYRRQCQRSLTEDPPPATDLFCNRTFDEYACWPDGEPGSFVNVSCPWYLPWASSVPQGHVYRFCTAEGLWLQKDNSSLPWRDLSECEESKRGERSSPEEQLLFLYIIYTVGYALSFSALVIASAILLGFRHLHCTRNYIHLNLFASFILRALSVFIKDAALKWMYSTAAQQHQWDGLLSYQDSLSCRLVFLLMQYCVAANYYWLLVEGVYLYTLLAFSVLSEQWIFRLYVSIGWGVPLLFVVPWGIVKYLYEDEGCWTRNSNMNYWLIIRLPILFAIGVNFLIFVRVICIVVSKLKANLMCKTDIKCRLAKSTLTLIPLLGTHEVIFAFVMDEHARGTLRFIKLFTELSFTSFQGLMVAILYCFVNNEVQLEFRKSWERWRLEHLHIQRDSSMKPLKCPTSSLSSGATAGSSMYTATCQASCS

| Binder | Relative cAMP EC50, nM (0.1% casein) | cAMP Rel EC50 (receptor-expressing HEK-293 cells, 1% HSA) | Relative cAMP EC50 | cAMP Rel EC50 (1% HSA) |
| --- | --- | --- | --- | --- |
| B1 | 0.173 nM | 18.7 nM | – | – |
| B2 | 0.177 nM | 14.9 nM | – | – |
| B3 | 0.146 nM | 9.85 nM | – | – |
| B4 | 0.164 nM | 14.6 nM | – | – |
| B5 | 0.188 nM | 18.2 nM | – | – |
| B6 | 0.236 nM | 10.6 nM | – | – |
| B7 | 0.207 nM | 13.3 nM | – | – |
| B8 | 0.243 nM | 28.6 nM | – | – |
| B9 | 0.375 nM | 35 nM | – | – |
| B10 | 0.314 nM | 23.5 nM | – | – |
| B11 | – | – | 1.08 nM | 161 nM |
| B12 | 0.317 nM | 37.9 nM | – | – |

biological target: T1, human GIP receptor (human); experiment: cell-based or functional assay

| Binder | Relative cAMP EC50, nM (0.1% casein) | cAMP Rel EC50 (receptor-expressing HEK-293 cells, 1% HSA) | Relative cAMP EC50 | cAMP Rel EC50 (1% HSA) |
| --- | --- | --- | --- | --- |
| B1 | 0.0127 nM | 1.44 nM | – | – |
| B2 | 0.0139 nM | 1.58 nM | – | – |
| B3 | 0.0119 nM | 0.84 nM | – | – |
| B4 | 0.0131 nM | 1.29 nM | – | – |
| B5 | 0.0133 nM | 1.17 nM | – | – |
| B6 | 0.0125 nM | 0.743 nM | – | – |
| B7 | 0.0466 nM | 5.65 nM | – | – |
| B8 | 0.106 nM | 26 nM | – | – |
| B9 | 0.0262 nM | 2.57 nM | – | – |
| B10 | 0.0905 nM | 7.11 nM | – | – |
| B11 | – | – | 0.297 nM | 32.6 nM |
| B12 | 0.0296 nM | 5.45 nM | – | – |

biological target: human glucagon receptor (human) (UniProt P47871); experiment: cell-based or functional assay
Sequence (P47871 26-477): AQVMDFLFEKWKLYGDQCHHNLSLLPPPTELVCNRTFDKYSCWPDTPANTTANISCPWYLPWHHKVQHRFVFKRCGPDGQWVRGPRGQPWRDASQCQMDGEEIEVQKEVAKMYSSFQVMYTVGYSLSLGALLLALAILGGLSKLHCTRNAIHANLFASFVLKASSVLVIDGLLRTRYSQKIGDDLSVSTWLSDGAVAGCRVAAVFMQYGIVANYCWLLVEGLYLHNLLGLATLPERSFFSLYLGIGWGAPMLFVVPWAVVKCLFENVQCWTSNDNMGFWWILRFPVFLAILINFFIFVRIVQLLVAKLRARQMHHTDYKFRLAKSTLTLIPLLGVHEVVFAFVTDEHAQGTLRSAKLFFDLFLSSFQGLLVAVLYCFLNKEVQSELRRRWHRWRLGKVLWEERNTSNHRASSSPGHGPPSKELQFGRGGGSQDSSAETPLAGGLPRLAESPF

| Binder | Relative cAMP EC50, nM (0.1% casein) | cAMP Rel EC50 (receptor-expressing HEK-293 cells, 1% HSA) | Relative cAMP EC50 | cAMP Rel EC50 (1% HSA) |
| --- | --- | --- | --- | --- |
| B1 | 5.26 nM | 716 nM | – | – |
| B2 | 1.41 nM | 325 nM | – | – |
| B3 | 1.35 nM | 128 nM | – | – |
| B4 | 1.34 nM | 90.2 nM | – | – |
| B5 | 1.77 nM | 231 nM | – | – |
| B6 | 3.88 nM | 166 nM | – | – |
| B7 | 5.84 nM | 348 nM | – | – |
| B8 | 8.07 nM | 665 nM | – | – |
| B9 | 4.43 nM | 647 nM | – | – |
| B10 | 5.98 nM | 432 nM | – | – |
| B11 | – | – | 2.7 nM | 418 nM |
| B12 | 2.19 nM | 181 nM | – | – |
